Measurements from PMC8287952, “PARP1 and CHK1 coordinate PLK1 enzymatic activity during the DNA damage response to promote homologous recombination-mediated repair” (Nucleic Acids Research, 2021).

Target: T1, HIS-PLK1 (UniProt P53350 1-603)
T1 construct: Polo-like kinase 1 (PLK1), HIS tagged, expressed in bacteria via pET28a; also called HIS tagged PLK1; source: bacterially produced (pET28a system)
Assay: pull-down; GST-CHK1 (insect cells) as bait, HIS-PLK1 (bacterial) as prey; 1 μg of each in NETN buffer (20 mM Tris–HCl pH 8.0, 0.15 M NaCl, 1 mM EDTA, 0.5% NP-40), 4°C overnight; glutathione-sepharose beads; immunoblotting
Conditions: both partners purified

T1 sequence (P53350 whole entry): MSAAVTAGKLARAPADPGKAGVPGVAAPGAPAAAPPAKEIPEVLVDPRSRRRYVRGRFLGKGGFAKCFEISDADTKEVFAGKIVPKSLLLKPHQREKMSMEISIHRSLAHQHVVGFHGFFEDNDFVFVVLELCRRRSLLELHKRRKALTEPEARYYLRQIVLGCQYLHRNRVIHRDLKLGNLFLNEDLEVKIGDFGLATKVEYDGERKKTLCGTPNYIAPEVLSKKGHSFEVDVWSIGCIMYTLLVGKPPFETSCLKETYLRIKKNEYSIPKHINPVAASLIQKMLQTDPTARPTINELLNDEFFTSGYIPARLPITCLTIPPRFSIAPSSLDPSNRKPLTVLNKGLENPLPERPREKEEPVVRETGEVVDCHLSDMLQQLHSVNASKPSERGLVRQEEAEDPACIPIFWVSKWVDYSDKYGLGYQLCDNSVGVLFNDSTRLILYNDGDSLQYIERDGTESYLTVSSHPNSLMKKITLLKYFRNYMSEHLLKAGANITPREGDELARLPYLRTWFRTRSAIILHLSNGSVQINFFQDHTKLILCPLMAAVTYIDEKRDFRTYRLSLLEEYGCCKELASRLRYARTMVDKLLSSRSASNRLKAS

- binding result: binds
B1: Recombinant human active protein GST-CHK1 (enzyme, UniProt O14757 1-476, looked up)
chain: MAVPFVEDWDLVQTLGEGAYGEVQLAVNRVTEEAVAVKIVDMKRAVDCPENIKKEICINKMLNHENVVKFYGHRREGNIQYLFLEYCSGGELFDRIEPDIGMPEPDAQRFFHQLMAGVVYLHGIGITHRDIKPENLLLDERDNLKISDFGLATVFRYNNRERLLNKMCGTLPYVAPELLKRREFHAEPVDVWSCGIVLTAMLAGELPWDQPSDSCQEYSDWKEKKTYLNPWKKIDSAPLALLHKILVENPSARITIPDIKKDRWYNKPLKKGAKRPRVTSGGVSESPSGFSKHIQSNLDFSPVNSASSEENVKYSSSQPEPRTGLSLWDTSPSYIDKLVQGISFSQPTCPDHMLLNSQLLGTPGSSQNPWQRLVKRMTRFFTKLDADKSYQCLKETCEKLGYQWKKSCMNQVTISTTDRRNNKLIFKVNLLEMDDKILVDFRLSKGDGLEFKRHFLKIKGKLIDIVSSQKIWLPAT
notes: Human checkpoint kinase CHK1, recombinant active protein; source: bought: R&D Systems (1630-KS-010), produced in insect cells
